The nanobody polyreactivity screen of Harvey et al. (2022)

Assay: yeast display, Sf9 membrane polyspecificity reagent, FACS + sequencing; frameworks hold sequencing errors
How it was run: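 Nanobodies came from a synthetic yeast display library in Saccharomyces cerevisiae BJ5465, induced with galactose for 36–48 hours and stained for 1 hour at 4 °C with 10% biotinylated, detergent-solubilized Sf9 membrane reagent. Cells were enriched on streptavidin microbeads and then FACS-sorted, with low and high (top ~1%) gates set on anti-HA fluorescence for expression and streptavidin fluorescence for reagent binding. Each polyreactivity label reflects the gate a clone came from. Genes were amplified by colony PCR, sequenced by MiSeq 2 × 250 and filtered by CDR length.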

Row | Sequence | polyreactivity (PSR sort gate)
1 | QVQLVDSRGGLVQAGGSLRLSCAASGLTFGPYAMGRYRQAPGKEREFVAAITWRGGRTNYADSVKGRFTMSRDNAKNTVYLQMNSLKPEDTAVYYCNAVISPHQWIRGGDSWGQGTQVTVSS | low polyreactivity
2 | QVQLVESGGGLVQAGGSLRLSCAASGYTFLGYAMGWSRQAPGKERELVAAIRRSGGRTYYADSVKGRFTISRDNAKNTVYLQMNSLKPEDTAVYYCAKGYVGEYDYWGQGTQVTVSS | high polyreactivity
3 | QVQLVESGGGLVQAGGSLRLSCAASGSTFLANAMGWYRQAPGKERELVATISSGGSTNYADSVKGRFTISRDNAKNTVYLQMNSLKPEDTAVYYCAAEYWYAWQEYGYWGQGTQVTVSS | low polyreactivity
4 | QVQLVESGGGLVQAGGSLRLSCAASGIIFYLYAMGWYRQAPGKERELVAPITTGGRTNYADSVKGRFTISRDNAKNTVYLQMNSLKPEDTAVYYCAATHRGQGGYYWGQGTQVTVSS | low polyreactivity
5 | QVQLVESGGGLVQAGGSLRLSCAASGNTFKGYAMGWYRQAPGKERELVAAISWSGSSTYYADSVKGRFTISRDYAKNTVYLQMNILKPEDTAVYYCNRKYLGRYASVYGYGYWGQGTQVTVSS | high polyreactivity
6 | QVQLVESGGGLVQAGGSLRLSCAASGRILHGYTMGWYRQAPGKERELVAAITSGGSTYYADSVKGRFTISRDNAKNTVYLQMNSLKPEDTAVYYCAAASYRHEEYYWGQGTQVTVSS | high polyreactivity
7 | QDQLVDSGGGLVQAGGSLRLSCAASGSIFPIYAMGGYRQAPGKERELVAAIDWGDGSTSYADSVKGRFTISRDNAKNTVYLQMNSLKPEDTAVYYCAARSVFDLVYYNLIFDYWGQGTQVTVSS | high polyreactivity
8 | QVQLVESGGGLVQAGGSLRLSCAASGRTFLWYAMGWYRQAPGKEREFVAAITKSSGSTYYADSVKGRFTISRDNAKNTVFLQMNSLKPEDNAVYYCAKRPFSTRYDYWGQVTQVTVSS | high polyreactivity
9 | QVQLVESGGGLVQAGGSLRLSCAASGRIFQYYAMGWYRQAPGKERELVASISGRGGRTYYADSVKGRFTISRDNAKNTVYLQMNSLKPEDTAVYYCNAVFSTIRYIRSYNYWGQGTQVTVSS | high polyreactivity
10 | QVQLEESGGGLVQAGGSLRLSCAASGLTFYSYAMGWYRQAPGKERELVAGINYSGDSTHYADSVKGRFTISRDNAKNTVYLQMNSLKPEDTAVYYCASQTFVYRKELLSRYEYWGQGTQVTVSS | high polyreactivity
11 | QVQIVESGGGLVQPGGSLRLSCAASGRIFGRNAMGWYRQAPGKEWELVAAITTSASRTYYADSVKGRFTISRDNAKNTVYLQMNSLKPEDTAVYYCAARPSWYWYKGDYWGQGTQVTVSS | high polyreactivity
12 | QVQLVESGGGLVQAGGSLRLSCAASGAIFAYNAMGWYRQAPGKEREFVAAISQSGGRTYYADSVKGRFTISRDYEKNTVYLQMNTLKPEDTAVYYCATDGIRLTSHRDYDYWGQGTQVTVSS | low polyreactivity
13 | QVQLVESGGGLVQAGGSLRLSCAASGRTFYGYAMGWYRQAPGKERELVATISGSGASTYYADSVKGRFTISRDNAKNTVYLQMNSLKPEVTAVYYFAARYVTNRHSRYYYWGQGTQVTVSS | high polyreactivity
14 | QVQLVESGGGLVQAGGSLRLSCAASGFIFSRNVMGWYRQAPGKERELVAAISRSGGSTYYADSVKGRFTISRDNAKNTVYLQMNSLKPEDTAVYYCAASRINYVYLLKGDYWGQGTQVTVSS | high polyreactivity
15 | QVPLVESGGGLVQAGGSLRLMCAASGRIFALYAMGWYRQAPGKERELVAAISWSAGRTYYADSVKGRFTISRDNAKNTVYLQMNSLKPEDTAVYYCAADTGRQYDYWGQGTQVTVSS | high polyreactivity
16 | QVQLVESGGGLVQAGGSLRLSCAASGSTFTYYAMGWYRQAPGKERELVADIDFSGTSTYYADSVKGRFTISRDNAKNTVYLQMNSLKPEDTAVYYCATDDYNWFDYDYWGQGTQVTVSS | low polyreactivity

Row | Sequence | polyreactivity (PSR sort gate)
17 | QVQLVESGGGLVQAGGSLRFSCAASGRIFTAYTMGWYRQAPGKERELVAAITRAGRTYYADSVKGRFTISRDNAKNTVYLQMNSLKPEDTAVYYCNTAPNYKYGYWGQGTQVTVSS | high polyreactivity
18 | QVQLVESGGGLVQAGGSLRLSCAASGSIFVYNAMGWYRQAPGKEREWVAGITLIGGSTYYADSVKGRFTISRDNAKNTVYLQMNSLKPEDTAVYYCNADVAPGIFYGYDSWGQGTQVTVSS | low polyreactivity
19 | QVQLVESGGGLVQAGGSLRLSCAASGIIFSIYALGWYRPAAGKERELVAAITYSGGRTYYADSVKGRFTISRDNAKNSVYLQMNSLKPEDTAVYYCAAVGYGEYYWGQGTQVTVSS | high polyreactivity
20 | QVQLVESGGGLVQAGVSLRLSCAASGSTFGRYTMGWYRQAPGKERELVAVITRGGDSTYYADSVKWRFTISRDNAKNTVYLQMNSLKPEDTAVYYCNAETNDWYYQAYLEVEYWGQGTQETVSS | low polyreactivity
21 | QVQLVESGGGLVQAGGSLRLSSADSGRIFSYYAMGGYRQAPGKEREFVATITYGGGSTYYADSVKGRFTISRDNAKNTVYLQMNSLKPEDTAVYYCAARGYSYRGWRMDYWGQGSQVTVSS | high polyreactivity
22 | QVQLVESAGGLVQAGGSLRLSCAASGSTFAFYAMGWYRQAPGKERELVAVISLRGSRTYYADSVKGRFTISRDNAKNTVYLQMSSLKPEDTAVYYCATTGYRLRQATRYDYWGQGTQVTVSS | high polyreactivity
23 | QVQLVESGGGLVQAGGSLRLSCAASGFTFSIYAMGWYRQAPGKERELVAAISYRGTSTYYADSVKGRFTISRDNAKNTVYLQMNSLKPEDTAVYYCNKVSSPFVYTVYYWGQGTQVTVSS | high polyreactivity
24 | QVQLVESGGGLVQAGGSLRLSCAASGRNYGNAMGWYRQAPGKERELVAAISAGGGRTYYADSVKGRFTISRDNAKNTVYLQMNSLKPEDTAVYYCAADTTLQAFIRYRPIGSYDSWGQGTQVTVSS | low polyreactivity
25 | PVQLVETGGGLVQAGGSLRLSCAASGRTFYRYAMGWYRQAPGKERELVAAITRRVDSTSYADSVKGRFTISRDNAKNTVYLQMNSLKPEDTAVYYCATLVQGSVYGVYGGGYWGQGTQVTVSS | low polyreactivity
26 | QVQLVESGGRLVQAGGSLRLSCAASGSIFRANAMVWYRQAPGNERELVAAISPNGGSTYYADSVKGRFTISRDHAKNTVYLQMNSLKPEDTAVYYCNTDHRNIWFRFKYDYWGQGTQVTVSS | high polyreactivity
27 | QVQLVESGGGLVQAGGSLRLSCAASGRTFSRYAMGWYRQAPGKERELVATINTRAGITNYPDSVKGRFTISRDNAKNTVYLQMNSLKPEDTAVYYCNRGRPGGPSWYHYVYWGQGTQVTVSS | high polyreactivity
28 | QVQLVESGGGLVQAGGSLRLSCAASGITFFRYTMGWYRQAPGKERELVAAINIRGTRTYYADSVKGRFTISRDNAKNTVYLQMNSLKPEDTAVYYCAAGYAYRYSGLSYDVDYWGQGTQVTVSS | high polyreactivity
29 | QVHHVESGGGLVQAGGSLRLSCAASGSTFYGYALGWYRQAPGKERELVAAITGSGDTTYYADSVKGRFTISRDNAKYTVYLQMNSLKPEDTAVYYCNRDYRSDLGYADQSWTDQYDHWGQGTQVTVSS | low polyreactivity
30 | QVQLVESGGGLVQAGGSLRLSCAASGSTFGPYTMGWYRQAPGKERELVATISSGGSTYYADSVKGRFTISRDNAKNTVYLQMNSLKPEDTAVYYCARDSYWEMDYWGQGTQVTVSS | low polyreactivity
31 | QVQLVESGGGLVQAGGSLRLSCAASGRTLARYAMGGYRQAPGKERELVAAISSSGGSTYYADSVKGRFTISRDNAKNTVYLQMNSLKPEDTAVYYCAAGWRYRYFRSRNFYPYYYWGQGTQVTVSS | high polyreactivity
